Results as given in patent publication US20250257133A1 (ADAGENE PTE, published 2025).

T1: B7H3 on MDA-MB-231 cells (UniProt Q5ZPR3 29-534, limits assumed)
T1 construct: whole, on cells
T1 sequence (looked up): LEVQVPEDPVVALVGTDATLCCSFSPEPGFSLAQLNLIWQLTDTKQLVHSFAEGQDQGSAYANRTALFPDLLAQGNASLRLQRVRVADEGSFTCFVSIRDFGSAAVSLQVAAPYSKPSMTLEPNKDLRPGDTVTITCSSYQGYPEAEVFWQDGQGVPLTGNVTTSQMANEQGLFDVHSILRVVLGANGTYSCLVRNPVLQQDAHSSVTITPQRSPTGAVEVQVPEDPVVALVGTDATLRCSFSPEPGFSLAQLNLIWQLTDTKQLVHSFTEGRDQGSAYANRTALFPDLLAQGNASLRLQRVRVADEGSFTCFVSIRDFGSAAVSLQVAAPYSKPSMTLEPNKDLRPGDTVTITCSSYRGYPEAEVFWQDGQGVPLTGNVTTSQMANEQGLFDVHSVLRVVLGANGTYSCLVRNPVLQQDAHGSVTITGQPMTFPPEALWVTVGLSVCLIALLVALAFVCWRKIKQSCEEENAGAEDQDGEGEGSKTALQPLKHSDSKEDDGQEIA


Legend:
[1] = target: Mouse CD28 (ELISA of Example 13) (mouse, UniProt P31041 20-150, limits assumed); assay: ELISA
[2] = target: Human CD28 (ELISAs of Examples 4 and 13) (human, UniProt P10747 19-152, limits assumed); assay: ELISA
Mouse CD28 on cells = target: T2, Mouse CD28 on cells (mouse, UniProt P31041 20-218); assay: flow cytometry on mouse T cells, median fluorescence intensity; drawn table; design: AUC: unit not given beside the values
T2 construct: also called CD28 on mouse T cells

B7H3 on MDA-MB-231 cells = target: T1, B7H3 on MDA-MB-231 cells; assay: flow cytometry, MDA-MB-231 cells
Procedure: An isotype antibody was included as a negative control.
MDA-MB-231 cells were cultured and seeded in 96-well plates at 1.0×10⁵ cells/well and incubated with serially diluted test BsAbs for 60 minutes at 4° C. in 2% FBS/RPMI1640 buffer. Next, the cells were washed twice with DPBS and further incubated with secondary APC-anti-human IgG Fe antibody (1:400 dilution) for 30 minutes at 4° C. Finally, the cells were washed twice with DPBS and resuspended in FACS buffer for flow cytometry analysis. For analysis, the MFI values versus concentrations were plotted using FlowJo 10 software (FlowJo LLC) and the data were further fitted with four-parameter non-linear regression to obtain EC₅₀ values by GraphPad Prism version 7 for Windows.

Mouse CD28 (ELISA of Example 13), sequence (P31041 20-150 limits assumed): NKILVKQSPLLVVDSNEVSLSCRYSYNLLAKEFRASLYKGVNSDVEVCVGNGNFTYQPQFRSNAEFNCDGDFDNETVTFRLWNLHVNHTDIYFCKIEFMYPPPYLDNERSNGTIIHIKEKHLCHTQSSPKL
T2 sequence (P31041 20-218 limits assumed): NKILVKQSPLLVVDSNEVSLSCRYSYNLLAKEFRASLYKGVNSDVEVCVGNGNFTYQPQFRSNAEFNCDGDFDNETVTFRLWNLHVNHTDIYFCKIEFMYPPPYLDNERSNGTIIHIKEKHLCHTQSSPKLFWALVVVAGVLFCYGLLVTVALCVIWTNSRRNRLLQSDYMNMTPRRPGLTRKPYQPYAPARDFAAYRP

| EC50 [1] [nM] | EC50 [2] [nM] | AUC (Mouse CD28 on cells) | EC50 (Mouse CD28 on cells) [nM] | Max MFI (Mouse CD28 on cells) | EC50 (B7H3 on MDA-MB-231 cells) [nM] | fold reduction of binding activity against TY21601 (B7H3 on MDA-MB-231 cells) [fold] | Binder |
| --- | --- | --- | --- | --- | --- | --- | --- |
| 74.2 | 3.03 | 4380 | 145 | 2710 | – | – | TY30120 (bispecific antibody, human IgG1, kappa, N297A, anti-B7H3 Fab x CD28 scFv BC10599 (VH-VL)-Fc) light: DIQLTQSPSSLSASVGDRVTITCRASQSIRKYLNWYQQKPGKAPKLLIYAASTLQSGVPSRFSGSGSGTDFTLTISSLQPEDFATYFCSQGTHVPFTFGQGTKVEIKRTVAAPSVFIFPPSDEQLKSGTASVVCLLNNFYPREAKVQWKVDNALQSGNSQESVTEQDSKDSTYSLSSTLTLSKADYEKHKVYACEVTHQGLSSPVTKSFNRGEC heavy: EVQLVESGGGLVQPGGSLRLSCAASGFTFSGYGIHWVRQAPGKGLEWIGWISPSGGDTKYAQKFQGRVTISRDNSKNTLYLQLNSLRAEDTAVYYCARGGTVVYFDYWGQGTLVTVSSASTKGPSVFPLAPSSKSTSGGTAALGCLVKDYFPEPVTVSWNSGALTSGVHTFPAVLQSSGLYSLSSVVTVPSSSLGTQTYICNVNHKPSNTKVDKKVEPKSCDKTHTCPPCPAPELLGGPSVFLFPPKPKDTLMISRTPEVTCVVVDVSHEDPEVKFNWYVDGVEVHNAKTKPREEQYASTYRVVSVLTVLHQDWLNGKEYKCKVSNKALPAPIEKTISKAKGQPREPQVYTLPPSRKKLTKNQVKLTCLVKGFYPSDIAVEWESNGQPENNYKTTPPVLDCDGSFFLYSKLTVDKSRWQQGNVFSCSVMHEALHNHYTQKSLSLSPGK EVQLVESGGGLVQPGGSLRLSCAASGFSLSTSGVGVSWIRQAPGKGLEWIGEIYHSGSTYYSPSLKSRVTISRDNSKNTLYLQLNSLRAEDTAVYYCARYGYYYYDFDYWGQGTLVTVSSGGGGSGGGGSGGGGSGGGGSDIQLTQSPSSLSASVGDRVTITCRASQSVDFHGISFLHWYQQKPGKAPKLLIYAASSLQSGVPSRFSGSGSGTDFTLTISSLQPEDFATYYCQQSYRSPRTFGQGTKVEIKEPKSSDKTHTCPPCPAPELLGGPSVFLFPPKPKDTLMISRTPEVTCVVVDVSHEDPEVKFNWYVDGVEVHNAKTKPREEQYASTYRVVSVLTVLHQDWLNGKEYKCKVSNKALPAPIEKTISKAKGQPREPQVYTDPPSRDELTKNQVSLTCLVDGFYPSDIAVEWESNGQPENCYKTTPPVLDSDGSFFLYSKLTVDKSRWQQGNVFSCSVMHEALHNHYTQDSLSLSPGK |
| – | – | – | – | – | 12.8 | ~28 | TY27556 (bispecific antibody, human IgG1, kappa, N297A, also called anti-B7H3xCD28 BsAb) light: DIQLTQSPSSLSASVGDRVTITCRASQSIRKYLNWYQQKPGKAPKLLIYAASTLQSGVPSRFSGSGSGTDFTLTISSLQPEDFATYFCSQGTHVPFTFGQGTKVEIKRTVAAPSVFIFPPSDEQLKSGTASVVCLLNNFYPREAKVQWKVDNALQSGNSQESVTEQDSKDSTYSLSSTLTLSKADYEKHKVYACEVTHQGLSSPVTKSFNRGEC heavy: EVQLVESGGGLVQPGGSLRLSCAASGFTFSGYGIHWVRQAPGKGLEWIGWISPSGGDTKYAQKFQGRVTISRDNSKNTLYLQLNSLRAEDTAVYYCARGGTVVYFDYWGQGTLVTVSSASTKGPSVFPLAPSSKSTSGGTAALGCLVKDYFPEPVTVSWNSGALTSGVHTFPAVLQSSGLYSLSSVVTVPSSSLGTQTYICNVNHKPSNTKVDKKVEPKSCDKTHTCPPCPAPELLGGPSVFLFPPKPKDTLMISRTPEVTCVVVDVSHEDPEVKFNWYVDGVEVHNAKTKPREEQYASTYRVVSVLTVLHQDWLNGKEYKCKVSNKALPAPIEKTISKAKGQPREPQVYTLPPSRKKLTKNQVKLTCLVKGFYPSDIAVEWESNGQPENNYKTTPPVLDCDGSFFLYSKLTVDKSRWQQGNVFSCSVMHEALHNHYTQKSLSLSPGK DIQLTQSPSSLSASVGDRVTITCRASQSVDFHGISFLHWYQQKPGKAPKLLIYAASSLQSGVPSRFSGSGSGTDFTLTISSLQPEDFATYYCQQSYRSPRTFGQGTKVEIKGGGGSGGGGSGGGGSGGGGSEVQLVESGGGLVQPGGSLRLSCAASGFSLSTGGVGVSWIRQAPGKGLEWIGEIYHSGSTYYSPSLKSRVTISRDNSKNTLYLQLNSLRAEDTAVYYCARYEYYYYDFDYWGQGTLVTVSSEPKSSDKTHTCPPCPAPELLGGPSVFLFPPKPKDTLMISRTPEVTCVVVDVSHEDPEVKFNWYVDGVEVHNAKTKPREEQYASTYRVVSVLTVLHQDWLNGKEYKCKVSNKALPAPIEKTISKAKGQPREPQVYTDPPSRDELTKNQVSLTCLVDGFYPSDIAVEWESNGQPENCYKTTPPVLDSDGSFFLYSKLTVDKSRWQQGNVFSCSVMHEALHNHYTQDSLSLSPGK |
| 108 | 5.73 | 4620 | 142 | 2860 | – | – | TY30121 (bispecific antibody, human IgG1, kappa, N297A, anti-B7H3 Fab x CD28 scFv BC10601 (VH-VL)-Fc) light: DIQLTQSPSSLSASVGDRVTITCRASQSIRKYLNWYQQKPGKAPKLLIYAASTLQSGVPSRFSGSGSGTDFTLTISSLQPEDFATYFCSQGTHVPFTFGQGTKVEIKRTVAAPSVFIFPPSDEQLKSGTASVVCLLNNFYPREAKVQWKVDNALQSGNSQESVTEQDSKDSTYSLSSTLTLSKADYEKHKVYACEVTHQGLSSPVTKSFNRGEC heavy: EVQLVESGGGLVQPGGSLRLSCAASGFTFSGYGIHWVRQAPGKGLEWIGWISPSGGDTKYAQKFQGRVTISRDNSKNTLYLQLNSLRAEDTAVYYCARGGTVVYFDYWGQGTLVTVSSASTKGPSVFPLAPSSKSTSGGTAALGCLVKDYFPEPVTVSWNSGALTSGVHTFPAVLQSSGLYSLSSVVTVPSSSLGTQTYICNVNHKPSNTKVDKKVEPKSCDKTHTCPPCPAPELLGGPSVFLFPPKPKDTLMISRTPEVTCVVVDVSHEDPEVKFNWYVDGVEVHNAKTKPREEQYASTYRVVSVLTVLHQDWLNGKEYKCKVSNKALPAPIEKTISKAKGQPREPQVYTLPPSRKKLTKNQVKLTCLVKGFYPSDIAVEWESNGQPENNYKTTPPVLDCDGSFFLYSKLTVDKSRWQQGNVFSCSVMHEALHNHYTQKSLSLSPGK EVQLVESGGGLVQPGGSLRLSCAASGFSLSTSGVGVGWIRQAPGKGLEWIGEIYHSGSTYYNPSLKSRVTISRDNSKNTLYLQLNSLRAEDTAVYYCARYKYDYYDFDYWGQGTLVTVSSGGGGSGGGGSGGGGSGGGGSDIQLTQSPSSLSASVGDRVTITCRASQSVDFHGISFLHWYQQKPGKAPKLLIYAASSLQSGVPSRFSGSGSGTDFTLTISSLQPEDFATYYCQQSYRSPRTFGQGTKVEIKEPKSSDKTHTCPPCPAPELLGGPSVFLFPPKPKDTLMISRTPEVTCVVVDVSHEDPEVKFNWYVDGVEVHNAKTKPREEQYASTYRVVSVLTVLHQDWLNGKEYKCKVSNKALPAPIEKTISKAKGQPREPQVYTDPPSRDELTKNQVSLTCLVDGFYPSDIAVEWESNGQPENCYKTTPPVLDSDGSFFLYSKLTVDKSRWQQGNVFSCSVMHEALHNHYTQDSLSLSPGK |
| 96.4 | 3.59 | 3820 | 76.2 | 1980 | – | – | TY30123 (bispecific antibody, human IgG1, kappa, N297A, anti-B7H3 Fab x CD28 scFv BC10621 (VH-VL)-Fc) light: DIQLTQSPSSLSASVGDRVTITCRASQSIRKYLNWYQQKPGKAPKLLIYAASTLQSGVPSRFSGSGSGTDFTLTISSLQPEDFATYFCSQGTHVPFTFGQGTKVEIKRTVAAPSVFIFPPSDEQLKSGTASVVCLLNNFYPREAKVQWKVDNALQSGNSQESVTEQDSKDSTYSLSSTLTLSKADYEKHKVYACEVTHQGLSSPVTKSFNRGEC heavy: EVQLVESGGGLVQPGGSLRLSCAASGFTFSGYGIHWVRQAPGKGLEWIGWISPSGGDTKYAQKFQGRVTISRDNSKNTLYLQLNSLRAEDTAVYYCARGGTVVYFDYWGQGTLVTVSSASTKGPSVFPLAPSSKSTSGGTAALGCLVKDYFPEPVTVSWNSGALTSGVHTFPAVLQSSGLYSLSSVVTVPSSSLGTQTYICNVNHKPSNTKVDKKVEPKSCDKTHTCPPCPAPELLGGPSVFLFPPKPKDTLMISRTPEVTCVVVDVSHEDPEVKFNWYVDGVEVHNAKTKPREEQYASTYRVVSVLTVLHQDWLNGKEYKCKVSNKALPAPIEKTISKAKGQPREPQVYTLPPSRKKLTKNQVKLTCLVKGFYPSDIAVEWESNGQPENNYKTTPPVLDCDGSFFLYSKLTVDKSRWQQGNVFSCSVMHEALHNHYTQKSLSLSPGK EVQLVESGGGLVQPGGSLRLSCAASGFSLSTGGVGVGWIRQAPGKGLEWIGEIYHSGSTYYSPSLKSRVTISRDNSKNTLYLQLNSLRAEDTAVYYCARYGYYYYDFDYWGQGTLVTVSSGGGGSGGGGSGGGGSGGGGSDIQLTQSPSSLSASVGDRVTITCRASQSVDFHGISFLHWYQQKPGKAPKLLIYAASSLQSGVPSRFSGSGSGTDFTLTISSLQPEDFATYYCQQSYRSPRTFGQGTKVEIKEPKSSDKTHTCPPCPAPELLGGPSVFLFPPKPKDTLMISRTPEVTCVVVDVSHEDPEVKFNWYVDGVEVHNAKTKPREEQYASTYRVVSVLTVLHQDWLNGKEYKCKVSNKALPAPIEKTISKAKGQPREPQVYTDPPSRDELTKNQVSLTCLVDGFYPSDIAVEWESNGQPENCYKTTPPVLDSDGSFFLYSKLTVDKSRWQQGNVFSCSVMHEALHNHYTQDSLSLSPGK |
